Bounds are passed on as bounds.

For experiment [1], the target named is CTCF (CCCTC-binding factor), full-length, wild type, C-terminal MBP-Flag tag (human) (UniProt P49711).
The target of experiment [2] is CTCF truncation mutant that only includes the 11 Zn-fingers (human). Kind of experiment: single-molecule co-localisation on DNA curtains.
Experiment [3] concerns the target CTCF(Y226A/F228A) (human) (UniProt P49711). Kind of experiment: single-molecule co-localisation on DNA curtains.
Experiment [4] has as its target CTCF (CCCTC-binding factor), full-length, wild type, C-terminal MBP-Flag tag (human) (UniProt P49711). Put plainly: single-molecule co-localisation on DNA curtains.

Chain of CTCF truncation mutant that only includes the 11 Zn-fingers (human) (P49711 266-577, stated change not applied): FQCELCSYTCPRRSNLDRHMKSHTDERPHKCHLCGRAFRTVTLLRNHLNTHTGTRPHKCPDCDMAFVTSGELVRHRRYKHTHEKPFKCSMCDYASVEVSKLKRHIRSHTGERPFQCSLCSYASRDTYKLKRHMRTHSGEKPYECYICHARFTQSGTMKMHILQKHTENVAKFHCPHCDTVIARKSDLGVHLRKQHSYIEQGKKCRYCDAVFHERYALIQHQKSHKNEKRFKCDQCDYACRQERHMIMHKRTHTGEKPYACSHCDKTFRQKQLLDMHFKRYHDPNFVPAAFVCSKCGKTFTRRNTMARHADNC

With “cohesin-NIPBL^C (SMC1, SMC3, RAD21, STAG1 with NIPBL^C), wild type (from UniProt Q14683;Q9UQE7;O60216;Q8WVM7;Q6KC79) (complex)”, the cohesin velocity after non-permissive (CTCF^N) collision in experiment [1] was 0.2 bp s^-1. In experiment [1], this substance yielded a cohesin velocity after permissive (CTCF^C) collision of 1.42 bp s^-1. Moreover, the percent co-localised in experiment [2] and in experiment [3] was less than 50% each time.
As to “cohesin-NIPBL^C with STAG1(W337A/F347A) (from UniProt Q14683;Q9UQE7;O60216;Q8WVM7;Q6KC79) (complex)”, in experiment [4], the percent of CTCF^N foci that retained cohesin was 47%.

These data come from publication doi:10.1101/2022.09.15.508177.
